Reference: patent US20090149389A1

Molecular target: MAPKAP kinase II (MK2) (UniProt P49137)
Assay: cell-based or functional assay

Sequence of MAPKAP kinase II (MK2) (P49137 whole entry): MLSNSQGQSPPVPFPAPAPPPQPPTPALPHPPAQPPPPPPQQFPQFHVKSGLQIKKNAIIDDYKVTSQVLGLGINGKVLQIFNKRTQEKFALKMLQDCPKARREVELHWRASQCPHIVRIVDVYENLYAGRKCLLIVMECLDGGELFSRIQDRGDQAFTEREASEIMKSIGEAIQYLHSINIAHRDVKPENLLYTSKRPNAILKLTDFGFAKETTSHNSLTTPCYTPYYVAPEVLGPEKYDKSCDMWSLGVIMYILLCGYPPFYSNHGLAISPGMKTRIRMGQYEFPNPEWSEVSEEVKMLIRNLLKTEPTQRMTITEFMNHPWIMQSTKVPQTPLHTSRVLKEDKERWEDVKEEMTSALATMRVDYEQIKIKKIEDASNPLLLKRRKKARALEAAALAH

## KALNRdQLGVAA (peptide)
  % of … [SEQ ID NO: 124] Reaction Velocity at an Inhibitor Concentration of 100 µM: 276%
